One may read the Kd as the free concentration of one partner at which half of the binding sites on the other are occupied at equilibrium, for simple one-to-one binding.

The target in test [1] is T1, ASAP1 ZA domain (Arf GAP domain and ankyrin repeats), residues 447-724 of ASAP1 (UniProt Q9QWY8 447-724).
T1 construct: Mouse is stated only for the PH domain constructs; the same residue numbers are used; Isotopically labelled in the PRE experiment; also called ^ΔPHZA; isolated ZA domain
T1 sequence (looked up): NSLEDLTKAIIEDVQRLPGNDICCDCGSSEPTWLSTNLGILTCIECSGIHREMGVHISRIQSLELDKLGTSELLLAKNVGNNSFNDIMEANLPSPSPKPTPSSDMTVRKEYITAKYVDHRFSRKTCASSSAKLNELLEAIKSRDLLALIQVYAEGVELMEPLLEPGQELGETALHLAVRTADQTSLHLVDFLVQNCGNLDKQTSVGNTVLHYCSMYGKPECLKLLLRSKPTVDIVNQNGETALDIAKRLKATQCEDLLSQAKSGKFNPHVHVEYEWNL
The test is described as follows: intermolecular PRE NMR; Cys159-MTSL myrArf1 (non-hydrolysable GTP analog), alone or in complex with wt PH, on nanodiscs; 100 μM Arf or Arf:PH and 100 μM isotopically labeled ZA. To be noted: both partners purified.

Test [2] deals with T2, N-myristoylated human Arf1 bound to GTPγS, anchored on nanodiscs (myrArf1·GTPγS) (human, UniProt P84077 1-181, N-terminal myristoyl). The test is described as follows: cell-based or functional assay.
T2 sequence (P84077 whole entry): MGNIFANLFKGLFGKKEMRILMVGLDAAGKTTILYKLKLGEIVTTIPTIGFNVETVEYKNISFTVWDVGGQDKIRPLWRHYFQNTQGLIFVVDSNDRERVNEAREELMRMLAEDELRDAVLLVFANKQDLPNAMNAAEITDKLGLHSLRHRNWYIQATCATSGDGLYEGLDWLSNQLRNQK
Test [3] has as its target T2, N-myristoylated human Arf1 bound to …. Kind of test: not stated; binding of PH variants and Arf variants compared with wild type (Fig. SI8 and Table SI1); the method is not given. Conditions: both partners purified.
Test [4] deals with T3, myrArf1 Glu54Ala (human, UniProt P84077 1-181, Glu54Ala, N-terminal myristoyl). The test is described as follows: cell-based or functional assay.
T3 sequence (P84077 whole entry E54A): as the sequence (P84077 whole entry) above, with E54A counted along it
The target in test [5] is T3, myrArf1 Glu54Ala. Kind of test: not stated; binding of PH variants and Arf variants compared with wild type (Fig. SI8 and Table SI1); the method is not given. To be noted: both partners purified.
Test [6] addresses T4, MTSL-tagged myrArf1 K38C (Cys159 mutated to Ala), GTPγS, on nanodiscs (human, UniProt P84077 1-181, Cys159 mutated to Ala | K38C, N-terminal myristoyl; MTSL nitroxide spin label on Cys38 via a disulfide bond).
T4 construct: human Arf1, Uniprot P84077, mono-cysteine variant; source: E. coli BL21 Star (DE3), co-expressed with yeast NMT, purified; spin-labelled on nanodiscs
Kind of test: intermolecular PRE NMR; 60 μM protiated MTSL-labelled myrArf1 variants on nanodiscs, 50 μM methyl-labelled ASAP1 PH, 25 °C; paramagnetic against ascorbate-reduced sample. Conditions: both partners purified.

Test [7] addresses T5, MTSL-tagged myrArf1 with Lys73 replaced by Cys (Cys159 mutated to Ala), GTPγS, on nanodiscs (human, UniProt P84077 1-181, Cys159 mutated to Ala | Lys73 replaced with Cys, N-terminal myristoyl; MTSL nitroxide spin label on Cys73 via a disulfide bond).
T5 construct: human Arf1, Uniprot P84077, mono-cysteine variant; also called spin-labeled myrArf1 variant (Lys73 to Cys); source: E. coli BL21 Star (DE3), co-expressed with yeast NMT, purified; spin-labelled on nanodiscs
The test is described as above. Conditions: both partners purified.

T4 sequence (P84077 other isoform, or with tags, fused parts or gaps with the stated changes): as the sequence (P84077 whole entry) above, with K38C, C159A counted along it
T5 sequence (P84077 other isoform, or with tags, fused parts or gaps with the stated changes): as the sequence (P84077 whole entry) above, with K73C, C159A counted along it

B1: Cys159-MTSL tagged myrArf1 bound to a non-hydrolysable GTP analog, on nanodiscs (natural protein)
chain: not shown
modifications: N-terminal myristoyl; MTSL nitroxide spin label on Cys159
notes: human Arf1, Uniprot P84077, native Cys159 spin-labelled; source: E. coli BL21 Star (DE3), co-expressed with yeast NMT, purified; spin-labelled on nanodiscs
The molecule B1 displayed a Kd in test [1] of 100 to 1000 µM.

B2: ΔN14 ASAP1 PH domain, [339-451]ASAP1 (domain or fragment, mouse, UniProt Q9QWY8 339-451, looked up)
chain: GSEKKGFLLKKSDGIRKVWQRRKCAVKNGILTISHATSNRQPAKLNLLTCQVKPNAEDKKSFDLISHNRTYHFQAEDEQDYIAWISVLTNSKEEALTMAFRGEQSTGENSLED
notes: mouse ASAP1, PH domain with shortened N-terminal extension, residues 339-451; tied by counting 14 residues from 325; also called ^ΔN14PH; source: E. coli BL21 Star (DE3) or BL21 (DE3), purified (HiTrap SP, SEC)
As to B2, in test [2], the “fold decrease in GAP activity compared with PH” value amounted to 100 fold. Besides, in test [3], the “fold weaker binding than wt PH” value is 2 fold.

B3: wild-type ASAP1 PH domain, [325-451]ASAP1 (domain or fragment, mouse, UniProt Q9QWY8 325-451, looked up)
chain: GGYSMHQLQGNKEYGSEKKGFLLKKSDGIRKVWQRRKCAVKNGILTISHATSNRQPAKLNLLTCQVKPNAEDKKSFDLISHNRTYHFQAEDEQDYIAWISVLTNSKEEALTMAFRGEQSTGENSLED
notes: mouse ASAP1, PH domain with its N-terminal extension, residues 325-451; also called wt PH
As for B3, in the test with myrArf1 Glu54Ala [4], the “fold decrease in GAP activity on Arf1 Glu54Ala compared with wild type (C50 of PZA, Fig. 7C)” value is 70 fold. Moreover, the “fold reduction of binding against wild type” value with myrArf1 Glu54Ala [5] was 2 fold. Moreover, the binding result in test [6] and in test [7] was “binds” each time.
